From publication PMC3799448 (Nucleic Acids Research, 2013)
One block for each binder: values may come before it.

Tests used:
RAD51 E237A = RAD51 E237A (human, UniProt Q06609 1-339, E237A); test: FRET
RAD51 E42A = RAD51 E42A (human, UniProt Q06609 1-339, E42A); test: FRET
RAD51 E59A = RAD51 E59A (human, UniProt Q06609 1-339, E59A); test: FRET
RAD51 wild type = RAD51 wild type (human, UniProt Q06609 1-339); test: FRET
[1] = target: T1, RAD51 (wild-type human RAD51 DNA strand exchange protein) (human, UniProt Q06609 1-339); test: fluorescence polarisation
T1 sequence: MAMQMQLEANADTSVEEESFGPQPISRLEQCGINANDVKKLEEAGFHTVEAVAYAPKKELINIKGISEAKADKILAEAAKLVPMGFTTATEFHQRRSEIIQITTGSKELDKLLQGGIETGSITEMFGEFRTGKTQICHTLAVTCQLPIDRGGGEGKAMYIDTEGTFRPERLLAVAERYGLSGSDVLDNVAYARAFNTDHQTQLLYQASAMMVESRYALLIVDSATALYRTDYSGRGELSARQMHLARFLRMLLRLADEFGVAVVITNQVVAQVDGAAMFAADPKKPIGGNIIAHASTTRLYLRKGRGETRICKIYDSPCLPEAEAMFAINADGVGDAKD

B1: dT60 (poly(dT)-60) (ssDNA)
DNA: TTTTTTTTTTTTTTTTTTTTTTTTTTTTTTTTTTTTTTTTTTTTTTTTTTTTTTTTTTTT
- binding result (RAD51 E237A): binds
- binding result (RAD51 E42A): binds
- binding result (RAD51 E59A): binds
- binding result (RAD51 wild type): binds

- Kd [1]: 34 ± 5 nM
Binder: KEPTLLGFHTASGKKVKIAKESLDKVKNLFDEKEQ (FITC (fluorescein) on the N-terminus, as printed: FITC-KEPT...) [FITC-BRC4 peptide (BRC4 repeat of BRCA2)]
